Data on 1 substance can be found in article PMC6385242, “Identification and characterization of a factor Va-binding site on human prothrombin fragment 2” (Scientific Reports, 2019).

Assay [1] concerns the target Factor Va (UniProt P12259). Nature of the assay: SPR; Biacore T200; FVa amine-coupled on a CM5 chip (8000-9000 RU); prothrombin 0-10,000 nM injected for 60 s at 30 uL/min; HBS (0.02 M HEPES, 0.15 M NaCl, pH 7.4) with 5 mM CaCl2 and 0.01% Tween-80; kinetic 1:1 Langmuir model. For orientation: In SPR one partner is held on a chip, and binding of the other changes the refractive index at the surface.

In assay [2] the target is Factor Va (UniProt P12259).
Chain of Factor Va (P12259 29-737, chain 1 of 2): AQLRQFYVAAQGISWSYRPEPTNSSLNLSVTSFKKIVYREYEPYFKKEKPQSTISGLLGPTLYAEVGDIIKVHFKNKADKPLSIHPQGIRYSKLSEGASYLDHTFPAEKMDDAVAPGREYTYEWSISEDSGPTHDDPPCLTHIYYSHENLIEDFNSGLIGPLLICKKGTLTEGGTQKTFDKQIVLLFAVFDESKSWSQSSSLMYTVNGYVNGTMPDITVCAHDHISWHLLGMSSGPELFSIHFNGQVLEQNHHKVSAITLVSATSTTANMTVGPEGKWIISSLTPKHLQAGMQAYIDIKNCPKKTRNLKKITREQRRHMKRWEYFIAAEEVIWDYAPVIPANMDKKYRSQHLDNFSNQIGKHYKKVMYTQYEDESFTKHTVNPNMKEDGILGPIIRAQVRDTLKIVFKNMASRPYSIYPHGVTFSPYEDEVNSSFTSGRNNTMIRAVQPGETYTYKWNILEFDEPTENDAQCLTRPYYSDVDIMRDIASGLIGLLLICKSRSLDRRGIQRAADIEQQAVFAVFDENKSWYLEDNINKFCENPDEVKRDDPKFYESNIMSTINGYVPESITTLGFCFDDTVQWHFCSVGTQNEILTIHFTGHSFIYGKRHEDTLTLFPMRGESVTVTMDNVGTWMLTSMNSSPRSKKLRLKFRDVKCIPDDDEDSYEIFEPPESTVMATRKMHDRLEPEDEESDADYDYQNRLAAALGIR
Chain of Factor Va (P12259 1574-2224, chain 2 of 2): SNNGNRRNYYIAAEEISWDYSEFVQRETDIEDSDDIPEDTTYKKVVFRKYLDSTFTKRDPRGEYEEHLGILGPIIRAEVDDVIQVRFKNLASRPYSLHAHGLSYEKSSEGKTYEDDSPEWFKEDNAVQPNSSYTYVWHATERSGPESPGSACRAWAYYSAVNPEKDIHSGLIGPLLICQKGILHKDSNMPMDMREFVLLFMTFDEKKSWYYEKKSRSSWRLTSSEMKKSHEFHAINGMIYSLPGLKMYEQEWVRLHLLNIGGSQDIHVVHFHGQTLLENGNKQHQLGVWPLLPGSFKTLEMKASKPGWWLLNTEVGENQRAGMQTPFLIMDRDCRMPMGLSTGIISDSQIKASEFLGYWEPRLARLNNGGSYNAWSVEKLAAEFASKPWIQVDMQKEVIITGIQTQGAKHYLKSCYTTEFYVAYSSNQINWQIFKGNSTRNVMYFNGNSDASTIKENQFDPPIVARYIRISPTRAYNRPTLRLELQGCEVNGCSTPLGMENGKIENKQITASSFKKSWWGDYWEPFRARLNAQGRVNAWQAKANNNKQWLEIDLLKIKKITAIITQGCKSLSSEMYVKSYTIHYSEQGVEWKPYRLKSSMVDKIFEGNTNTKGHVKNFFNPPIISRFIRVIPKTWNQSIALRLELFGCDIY
Assay [3] deals with Factor Va (UniProt P12259). The source holds these as a separate data set.

Consider “PT6 prothrombin (Gln177Ala, Gln179Ala, Arg181Ala, Leu182Thr, Val184Thr, Thr185Ala) (natural protein)”, for which, in the assay with Factor Va [1], the dissociation constant Kd (as a rule, the concentration at which binding is half-saturated) is 2600 nM. In the assay with Factor Va [2], this substance showed a total thrombin generated on activation by FXa/FVa, relative to wild-type prothrombin (% of wild type) of 35 and a total thrombin generated on activation by full prothrombinase, decrease against wild-type prothrombin (% lower than wild type) of 42. In the assay with Factor Va [3], the initial rate of thrombin generation, activation by FXa/FVa (5 nM FXa, 20 nM FVa, 5 mM CaCl2; DAPA) was 0.0053 s⁻¹ and the initial rate of thrombin generation, activation by full prothrombinase (20 pM FXa, 20 nM FVa, 50 uM PCPS, 5 mM CaCl2; DAPA) came to 55.1 s⁻¹.
